Test results published in patent publication US9889183B2, “PKC activators and anticoagulant in regimen for treating stroke” (BLANCHETTE ROCKEFELLER NEUROSCIENCES INSTITUTE, priority 2010, dated 2018).

Test system: ischemic stroke (middle cerebral artery occlusion) in rats
Test: Focal ischemia (MCAO) model of stroke
Type: in vivo, rat
Settings: rTPA 6 hours after the stroke, without subsequent bryostatin; rats
Description: A transient animal model of focal ischemia was used for these experiments. The middle cerebral artery (MCA) was surgically dissected and occluded in anesthetized rats by ligature, followed by reperfusion after a defined period (about 2 hours). Animal models transient ischemia via occlusion of the MCA (MCAO) are well-known and described in, e.g., Sicard and Fisher, Exp. & Transl. Stroke Med. (2009), vol. 1, pp. 1-7.

B1: rTPA: recombinant tissue plasminogen activator, thrombolytic serine protease (protein, UniProt P00750 36-562, looked up)
Tissue-type plasminogen …: SYQVICRDEKTQMIYQQHQSWLRPVLRSNRVEYCWCNSGRAQCHSVPVKSCSEPRCFNGGTCQQALYFSDFVCQCPEGFAGKCCEIDTRATCYEDQGISYRGTWSTAESGAECTNWNSSALAQKPYSGRRPDAIRLGLGNHNYCRNPDRDSKPWCYVFKAGKYSSEFCSTPACSEGNSDCYFGNGSAYRGTHSLTESGASCLPWNSMILIGKVYTAQNPSAQALGLGKHNYCRNPDGDAKPWCHVLKNRRLTWEYCDVPSCSTCGLRQYSQPQFRIKGGLFADIASHPWQAAIFAKHRRSPGERFLCGGILISSCWILSAAHCFQERFPPHHLTVILGRTYRVVPGEEEQKFEVEKYIVHKEFDDDTYDNDIALLQLKSDSSRCAQESSVVRTVCLPPADLQLPDWTECELSGYGKHEALSPFYSERLKEAHVRLYPSSRCTSQHLLNRTVTDNMLCAGDTRSGGPQANLHDACQGDSGGPLVCLNDGRMTLVGIISWGLGCGQKDVPGVYTKVTNYLDWIRDNMRP
Molecule B1 has a mortality of 44%.
